Results reported in patent US20050266465A1 (MAXYGEN, published 2005).
Where a chain is given by its changes, count along the chain named.

B1: MonoPEGylated 14epi18 (ligand)
chain: MCDLPQTHSLGHRRTMMLLAQMRRISLFSCLKDRHDFRFPQEEFDGNHAQKVQAIFLFYEMMQQTFNLFSTKDSSAAWDETLLEKFYIELFQQMNDLEACVMQEVGVEETPLMNVDSILAVRKYFQRITLYLTEKKYSPCAWEVVRAEIMRSFSFSTNLQESLRSKE
modifications: single 40 kDa branched PEG (mPEG2-NHS) on a lysine; positional isomers predominantly monoPEGylated at Lys122 and Lys135
B2: MonoPEGylated 25epi19 (ligand)
chain: MCDLPQTHSLSNRRTLMLMAQMRRISPFSCLKDRHDFGFPEEEFDGHQAQKVQAIFLLYELIQQTFNLFSTKDSSAAWDETLLEKFYIELFQQMNNLEACVIQEVGVEEIALMNVDSILAVRKYFRRITLYLTEKKYSPCAWEVVRAEIMRSFSFSTNLQESLRSKE
modifications: single 40 kDa branched PEG (mPEG2-NHS) on a lysine; positional isomers predominantly monoPEGylated at Lys31, Lys122 and Lys135
B3: B9x14EC4 (ligand)
chain: CDLPQTHSLGHRRTMMLLAQMRRISLFSCLKDRHDFRFPQEEFDGNHFQKVQAIFLFYEMMQQTFNLFSTKDSSAAWDETLLEKFYIELFQQMNDLEACVMQEVGVEETPLMNVDSILAVRKYFQRITLYLTEKKYSPCAWEVVRAEIMRSFSFSTNLQESLRSKE
B4: 14epi25 (ligand)
chain: B3 chain with F48L, F55S, L111A
B5: 14epi15 (ligand)
chain: B3 chain with F48L
B6: 14epi18 (ligand)
chain: B3 chain with F48A
B7: 14epi31 (ligand)
chain: B3 chain with F48A, F55A, N113K, V114E
B8: 14epi26 (ligand)
chain: B3 chain with F48L, F55S, N113K, V114E
B9: 14epi32 (ligand)
chain: B3 chain with F48L, Q52P, F55S, N113K, V114E
B10: 14epi22 (ligand)
chain: B3 chain with F55S
B11: 14epi16 (ligand)
chain: B3 chain with F48L, F55A
B12: 14epi29 (ligand)
chain: B3 chain with F48A, F55S, F65A
B13: 14epi20 (ligand)
chain: B3 chain with F48A, F55S
B14: 14epi17 (ligand)
chain: B3 chain with F48L, F55S
B15: 14epi19 (ligand)
chain: B3 chain with F48A, F55A
B16: 14epi34 (ligand)
chain: B3 chain with Q52P, F55S, V114E
B17: 14epi21 (ligand)
chain: B3 chain with F55A
B18: 14epi33 (ligand)
chain: B3 chain with Q52P, F55S, N113K, V114E
B19: 25epi19 (ligand)
chain: CDLPQTHSLSNRRTLMLMAQMRRISPFSCLKDRHDFGFPEEEFDGHQAQKVQAIFLLYELIQQTFNLFSTKDSSAAWDETLLEKFYIELFQQMNNLEACVIQEVGVEEIALMNVDSILAVRKYFRRITLYLTEKKYSPCAWEVVRAEIMRSFSFSTNLQESLRSKE

biological target: T1, interferon-alpha receptor (type I interferon receptor comprising receptor subunits IFNAR-2 and IFNAR-1) (human, UniProt P17181 28-557; P48551 27-515); assay: cell-based or functional assay
T1 sequence (looked up) 1: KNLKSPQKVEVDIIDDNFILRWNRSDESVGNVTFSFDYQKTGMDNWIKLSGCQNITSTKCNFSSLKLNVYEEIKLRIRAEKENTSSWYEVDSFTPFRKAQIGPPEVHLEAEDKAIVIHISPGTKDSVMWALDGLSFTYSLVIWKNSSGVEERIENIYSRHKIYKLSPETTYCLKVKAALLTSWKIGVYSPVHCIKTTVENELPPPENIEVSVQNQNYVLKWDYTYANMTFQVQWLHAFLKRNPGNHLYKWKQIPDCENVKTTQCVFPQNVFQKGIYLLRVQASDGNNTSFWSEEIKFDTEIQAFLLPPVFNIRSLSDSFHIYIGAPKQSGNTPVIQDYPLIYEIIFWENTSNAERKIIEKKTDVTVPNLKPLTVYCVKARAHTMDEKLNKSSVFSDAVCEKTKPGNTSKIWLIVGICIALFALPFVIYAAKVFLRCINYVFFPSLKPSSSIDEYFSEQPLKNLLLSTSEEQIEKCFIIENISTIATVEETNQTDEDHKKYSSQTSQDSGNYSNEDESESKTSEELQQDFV
T1 sequence (looked up) 2: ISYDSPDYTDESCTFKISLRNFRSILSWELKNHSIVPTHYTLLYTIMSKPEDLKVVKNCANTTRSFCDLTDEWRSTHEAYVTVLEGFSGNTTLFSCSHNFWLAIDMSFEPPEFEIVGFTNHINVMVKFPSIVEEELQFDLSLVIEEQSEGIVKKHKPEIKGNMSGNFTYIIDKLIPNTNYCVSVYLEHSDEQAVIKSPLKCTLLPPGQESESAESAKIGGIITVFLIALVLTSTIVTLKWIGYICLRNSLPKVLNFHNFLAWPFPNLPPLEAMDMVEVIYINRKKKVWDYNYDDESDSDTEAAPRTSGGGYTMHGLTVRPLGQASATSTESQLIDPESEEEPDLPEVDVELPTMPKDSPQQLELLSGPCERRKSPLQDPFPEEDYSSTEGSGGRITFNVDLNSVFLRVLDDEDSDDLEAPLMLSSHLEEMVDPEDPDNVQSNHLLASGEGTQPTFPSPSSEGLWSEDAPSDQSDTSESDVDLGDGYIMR

Binder | HeLa-EMCV antiviral assay, antiviral activity relative to monoPEGylated IFN-alpha 2a
B1 | > 10 fold
B2 | > 10 fold

biological target: T1, interferon-alpha receptor (type I …); assay: cell-based or functional assay; remark: another data set of the same source

Binder | HeLa/EMCV Antiviral activity relative to huIFN-alpha 2b | HuH7/EMCV Antiviral activity relative to huIFN-alpha 2b
B3 | > 8 fold | > 8 fold
B4 | > 8 fold | > 8 fold
B5 | > 8 fold | > 8 fold
B6 | > 8 fold | > 8 fold
B7 | > 8 fold | 
B8 | > 8 fold | 
B9 | > 8 fold | > 8 fold
B10 | > 8 fold | 
B11 | > 8 fold | > 8 fold
B12 | > 8 fold | 
B13 | > 8 fold | > 8 fold
B14 | > 8 fold | > 8 fold
B15 | > 8 fold | > 8 fold
B16 | > 8 fold | > 8 fold
B17 | > 8 fold | > 8 fold
B18 | > 8 fold | > 8 fold
B19 | > 8 fold | > 8 fold

biological target: T1, interferon-alpha receptor (type I …); assay: cell-based or functional assay; remark: another data set of the same source

Binder | TH1 activity (IFN-gamma in supernatants of naive T cells), Fold over IFN-alpha 2a
B6 | > 30 fold
B19 | > 30 fold
